Experimental data as given in patent US20100041096.

How the values were obtained:
His-BARD1 1-320 = His-BARD1 1-320 (UniProt Q99728)
His-BARD1 14-189 = His-BARD1 14-189 (UniProt Q99728)
His-BARD1 14-189, sequence (Q99728 14-189): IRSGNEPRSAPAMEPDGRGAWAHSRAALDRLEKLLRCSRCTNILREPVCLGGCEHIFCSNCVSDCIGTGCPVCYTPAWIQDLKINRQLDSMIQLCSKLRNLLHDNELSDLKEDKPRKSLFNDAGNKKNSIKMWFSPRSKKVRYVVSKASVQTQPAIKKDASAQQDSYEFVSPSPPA

His-BARD1 1-320, sequence (Q99728 1-320): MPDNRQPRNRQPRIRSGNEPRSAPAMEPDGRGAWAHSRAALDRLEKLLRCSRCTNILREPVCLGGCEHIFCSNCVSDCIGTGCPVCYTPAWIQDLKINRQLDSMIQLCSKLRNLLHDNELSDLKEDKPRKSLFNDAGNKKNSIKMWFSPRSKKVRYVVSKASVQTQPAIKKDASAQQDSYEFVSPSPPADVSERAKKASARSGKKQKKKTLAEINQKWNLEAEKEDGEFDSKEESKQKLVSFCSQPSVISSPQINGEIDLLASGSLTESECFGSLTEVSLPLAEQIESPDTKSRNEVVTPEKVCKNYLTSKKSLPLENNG

Substance: CDK2-cyclin E1
- in vitro kinase assay ([gamma-32P]ATP, autoradiography) (His-BARD1 1-320): both His-BARD^14-180 and HA-BARD1^1-320 were phosphorylated in vitro with CDK2-cyclin E1 and CDK1-cyclinc B1
- in vitro kinase assay ([gamma-32P]ATP, autoradiography) (His-BARD1 14-189): both His-BARD^14-180 and HA-BARD1^1-320 were phosphorylated in vitro with CDK2-cyclin E1 and CDK1-cyclinc B1

Substance: HA-CDK1-cyclin B1
- in vitro kinase assay ([gamma-32P]ATP, autoradiography) (His-BARD1 1-320): both His-BARD^14-180 and HA-BARD1^1-320 were phosphorylated in vitro with CDK2-cyclin E1 and CDK1-cyclinc B1
- in vitro kinase assay ([gamma-32P]ATP, autoradiography) (His-BARD1 14-189): both His-BARD^14-180 and HA-BARD1^1-320 were phosphorylated in vitro with CDK2-cyclin E1 and CDK1-cyclinc B1
